ChEMBL document CHEMBL1671727, “Expression, purification, and characterization of Aspergillus fumigatus sterol 14-alpha demethylase (CYP51) isoenzymes A and B” (Antimicrob Agents Chemother, 2010)

Substrate: CC(C)=CCC[C@@H](C)[C@H]1CC[C@@]2(C)C3=C(CC[C@]12C)[C@@]1(C)CC[C@H](O)C(C)(C)[C@@H]1CC3
Test: Activity of Candida albicans CYP51

B1: Lanosterol 14-alpha demethylase (Candida albicans SC5314) (protein)
chain: MAIVETVIDGINYFLSLSVTQQISILLGVPFVYNLVWQYLYSLRKDRAPLVFYWIPWFGSAASYGQQPYEFFESCRQKYGDVFSFMLLGKIMTVYLGPKGHEFVFNAKLSDVSAEDAYKHLTTPVFGKGVIYDCPNSRLMEQKKFAKFALTTDSFKRYVPKIREEILNYFVTDESFKLKEKTHGVANVMKTQPEITIFTASRSLFGDEMRRIFDRSFAQLYSDLDKGFTPINFVFPNLPLPHYWRRDAAQKKISATYMKEIKSRRERGDIDPNRDLIDSLLIHSTYKDGVKMTDQEIANLLIGILMGGQHTSASTSAWFLLHLGEKPHLQDVIYQEVVELLKEKGGDLNDLTYEDLQKLPSVNNTIKETLRMHMPLHSIFRKVTNPLRIPETNYIVPKGHYVLVSPGYAHTSERYFDNPEDFDPTRWDTAAAKANSVSFNSSDEVDYGFGKVSKGVSSPYLPFGGGRHRCIGEQFAYVQLGTILTTFVYNLRWTIDGYKVPDPDYSSMVVLPTEPAEIIWEKRETCMF
- Km: 7.4 µM
